# Assay results reported in US20110039770A1 (PHARMAGAP, published 2011).
# What was measured:
# PKC-α (purified isoform) [1] = molecular target: T1, PKC-α (purified isoform) (Homo sapiens (Human), UniProt P17252 2-672); test: competitive ELISA, coated purified PKC-α, vs anti-PKC α (SC-208); PRE 200 µM
# T1 construct: also called purified PKC-alpha; commercially purified PKC-alpha
# Procedure: (§1) Greiner 96 well ELISA plates were coated with the appropriate PKC isoform diluted in PBSN (PBS with Calcium/Magnesium+0.05% Sodium azide w/w). 50 μL/well at 250 ng/mL was used. Control wells contained PBSN only. Plates were incubated overnight at 4° C.
# (§2) The plates were washed 3 times with 200 μL of dH₂O per well, then 100 μL of blocking solution was added per well and the plate incubated for 1 h at 37° C. The washing steps with dH₂O were repeated and 50 μL of the appropriate PRE solution (PRE stock solution [20 mM in DMSO] diluted in PBSN) was added and the plate incubated for 1 h at room temperature.
# (§3) 50 μL of 1:1000 dilution of Alkaline Phosphatase (AP) conjugated antibody (anti-rabbit for all except zeta, which was anti-goat) was then added and the plate incubated for 1 h at room temperature. Washing with dH₂O was then repeated. Finally, 100 μL of pNPP solution in pNPP buffer (2 mM MgCl₂, 100 mM Sodium bicarbonate in water, pH 9.8) was added to all wells and incubated for 8 minutes for α, βI, βII ε, and ζ, or for 15-20 mins for δ (until sufficient coloration is observed). The reaction was stopped by addition of Stop solution (2N NaOH) and the absorbance at 405 nm was read on a Galaxy Plate reader.
# [2] = molecular target: T2, PKC-βII (purified isoform) (Homo sapiens (Human), UniProt P05771 2-621); test: competitive ELISA, coated purified PKC-βII, vs anti-PKC βII (SC-210); PRE 100 µM
# T2 construct: also called PKC-beta II; PKC beta 2
# Procedure: as §1, §2, §3
# PKC-α (purified isoform) [3] = molecular target: T1, PKC-α (purified isoform); test: competitive ELISA, coated purified PKC-α, vs anti-PKC α (SC-208); PRE 100 µM
# Procedure: as §1, §2, §3
# [4] = molecular target: T3, PKC-ε (endogenous, IMR-32 lysate) (human, UniProt Q02156 1-737); test: WB competition Protocol B, IMR-32 extract, vs anti-PKC-ε Ab; PKC-ε Band 2; 20 µg peptide
# T3 construct: Band 1 and Band 2 (alternate splicing variants, not identified further) are kept under one molecule; the band is named in the assay field of each row; also called PKC-epsilon; PKC-ε Band 1
# T3 sequence (looked up): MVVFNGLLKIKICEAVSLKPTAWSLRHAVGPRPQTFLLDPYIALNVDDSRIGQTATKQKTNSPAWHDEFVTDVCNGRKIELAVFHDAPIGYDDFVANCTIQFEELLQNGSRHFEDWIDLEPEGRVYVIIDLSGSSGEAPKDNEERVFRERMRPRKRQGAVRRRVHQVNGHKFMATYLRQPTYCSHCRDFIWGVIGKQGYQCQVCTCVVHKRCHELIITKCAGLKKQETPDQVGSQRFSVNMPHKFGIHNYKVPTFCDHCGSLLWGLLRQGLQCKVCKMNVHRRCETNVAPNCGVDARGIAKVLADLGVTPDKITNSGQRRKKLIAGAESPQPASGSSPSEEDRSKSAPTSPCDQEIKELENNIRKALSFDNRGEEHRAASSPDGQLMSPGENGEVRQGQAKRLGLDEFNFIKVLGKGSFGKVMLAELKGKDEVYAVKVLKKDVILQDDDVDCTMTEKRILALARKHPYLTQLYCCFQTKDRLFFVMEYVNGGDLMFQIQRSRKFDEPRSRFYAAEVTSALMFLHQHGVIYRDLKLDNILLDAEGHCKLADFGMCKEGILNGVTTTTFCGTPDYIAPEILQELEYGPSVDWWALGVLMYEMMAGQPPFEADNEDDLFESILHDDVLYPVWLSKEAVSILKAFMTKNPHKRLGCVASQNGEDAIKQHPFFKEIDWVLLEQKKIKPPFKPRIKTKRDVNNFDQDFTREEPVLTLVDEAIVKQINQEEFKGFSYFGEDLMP
# Procedure: (§4) The ability of the peptides PRE 2 and PRE 3 (see Table 4) to interfere with the binding of a PKC-α-specific polyclonal antibody (Santa Cruz Biotechnology, Inc.) to PKC-α was determined using a modified version of the protocol outlined above in which the test peptide was added directly to the cell extract prior to electrophoresis at a concentration of either 5× or 15× the concentration of the protein applied to each well of the gel for the Western blots (20 μg).
# (§5) Peptides PRE 2, PRE 3 and PRE 4 (see Table 4) were tested for their ability to interfere with the binding of isoform-specific polyclonal antibodies (Santa Cruz Biotechnology, Inc.) to […] using the general protocol described in Example 3. Two bands, representing alternate splicing variants of PKC-ε, were identified on the Western blot using this anti-PKC-ε antibody.
# PKC-δ (purified isoform) = molecular target: T4, PKC-δ (purified isoform); test: competitive ELISA, coated purified PKC-δ, vs anti-PKC δ (SC-213); PRE 200 µM
# T4 construct: also called PKC-delta
# Procedure: as §1, §2, §3
# [5] = molecular target: T2, PKC-βII (purified isoform); test: competitive ELISA, coated purified PKC-βII, vs anti-PKC βII (SC-210); PRE 200 µM
# Procedure: as §1, §2, §3
# [6] = molecular target: T5, PKC-βI (purified isoform) (Homo sapiens (Human), UniProt P05771 2-671); test: competitive ELISA, coated purified PKC-βI, vs anti-PKC βI (SC-209); PRE 50 µM
# T5 construct: also called PKC-beta I; PKC beta 1
# Procedure: as §1, §2, §3
# [7] = molecular target: T3, PKC-ε (endogenous, IMR-32 lysate); test: WB competition Protocol B, IMR-32 extract, vs anti-PKC-ε Ab; PKC-ε Band 1; 20 µg peptide
# Procedure: as §4, §5
# T2 sequence (P05771 other isoform, or with tags, fused parts or gaps limits assumed): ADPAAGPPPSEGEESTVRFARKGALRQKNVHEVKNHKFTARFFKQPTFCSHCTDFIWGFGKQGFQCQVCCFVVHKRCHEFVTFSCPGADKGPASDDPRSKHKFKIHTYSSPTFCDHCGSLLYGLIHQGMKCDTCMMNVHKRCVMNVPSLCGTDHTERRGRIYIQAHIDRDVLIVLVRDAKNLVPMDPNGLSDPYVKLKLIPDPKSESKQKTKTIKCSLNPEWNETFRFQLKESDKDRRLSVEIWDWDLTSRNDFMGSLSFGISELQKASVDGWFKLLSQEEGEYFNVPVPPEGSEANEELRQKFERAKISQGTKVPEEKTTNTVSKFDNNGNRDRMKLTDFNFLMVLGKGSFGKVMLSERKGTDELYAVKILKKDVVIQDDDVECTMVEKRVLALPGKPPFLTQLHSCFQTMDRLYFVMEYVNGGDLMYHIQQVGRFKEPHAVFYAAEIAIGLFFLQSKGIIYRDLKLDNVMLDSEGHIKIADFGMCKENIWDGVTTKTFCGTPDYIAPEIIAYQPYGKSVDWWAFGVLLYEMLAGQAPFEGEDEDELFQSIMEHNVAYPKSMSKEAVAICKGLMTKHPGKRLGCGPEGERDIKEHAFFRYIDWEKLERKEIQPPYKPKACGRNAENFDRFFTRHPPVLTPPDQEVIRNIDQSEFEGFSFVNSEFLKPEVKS
# T5 sequence (P05771 2-671 limits assumed): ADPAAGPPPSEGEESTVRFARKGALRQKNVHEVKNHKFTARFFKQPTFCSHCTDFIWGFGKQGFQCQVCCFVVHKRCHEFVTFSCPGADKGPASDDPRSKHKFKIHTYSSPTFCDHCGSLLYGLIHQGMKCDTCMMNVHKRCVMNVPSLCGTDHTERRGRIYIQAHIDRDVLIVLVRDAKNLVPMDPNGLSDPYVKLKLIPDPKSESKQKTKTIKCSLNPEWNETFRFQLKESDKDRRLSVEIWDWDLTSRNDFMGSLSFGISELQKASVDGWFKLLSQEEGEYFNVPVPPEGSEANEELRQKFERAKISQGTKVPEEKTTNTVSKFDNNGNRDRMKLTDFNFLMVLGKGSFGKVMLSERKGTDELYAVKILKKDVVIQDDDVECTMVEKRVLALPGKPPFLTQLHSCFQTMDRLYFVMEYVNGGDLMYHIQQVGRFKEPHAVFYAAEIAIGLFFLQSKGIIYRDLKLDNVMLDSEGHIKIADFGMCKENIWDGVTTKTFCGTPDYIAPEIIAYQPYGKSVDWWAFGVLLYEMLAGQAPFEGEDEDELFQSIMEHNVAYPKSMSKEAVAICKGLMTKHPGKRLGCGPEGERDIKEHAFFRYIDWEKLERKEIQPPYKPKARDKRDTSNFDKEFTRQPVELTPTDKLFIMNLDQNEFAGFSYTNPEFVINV
# T4 sequence (Q05655 whole entry, stated change not applied, canonical isoform): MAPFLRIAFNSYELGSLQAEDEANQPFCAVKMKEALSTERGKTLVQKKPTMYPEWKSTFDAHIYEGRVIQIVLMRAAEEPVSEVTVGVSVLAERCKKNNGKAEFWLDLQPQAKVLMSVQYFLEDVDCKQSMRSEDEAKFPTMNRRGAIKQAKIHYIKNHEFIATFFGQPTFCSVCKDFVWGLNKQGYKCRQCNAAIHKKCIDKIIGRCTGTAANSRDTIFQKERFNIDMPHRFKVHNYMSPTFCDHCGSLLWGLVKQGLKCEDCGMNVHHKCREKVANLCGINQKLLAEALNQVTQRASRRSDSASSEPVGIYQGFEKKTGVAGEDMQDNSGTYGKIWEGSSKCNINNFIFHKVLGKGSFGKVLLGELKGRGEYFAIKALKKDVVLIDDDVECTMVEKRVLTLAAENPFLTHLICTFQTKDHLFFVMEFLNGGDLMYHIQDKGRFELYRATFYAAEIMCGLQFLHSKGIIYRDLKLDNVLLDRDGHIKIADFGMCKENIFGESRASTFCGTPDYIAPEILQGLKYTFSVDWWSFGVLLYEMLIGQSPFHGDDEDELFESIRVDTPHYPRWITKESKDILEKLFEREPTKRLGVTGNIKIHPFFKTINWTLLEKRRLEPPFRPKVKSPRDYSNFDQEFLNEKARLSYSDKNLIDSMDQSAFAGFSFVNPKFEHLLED
binder,measurement,setting,value
Ac-KDAQNLIGISI-NH2 (also called peptide PRE 4) [PRE 4],"relative binding capacity (100-%n, DMSO subtracted)",PKC-α (purified isoform) [1],22.8%
same,"relative binding capacity (100-%n, DMSO subtracted)",[2],13.5%
same,"relative binding capacity (100-%n, DMSO subtracted)",PKC-α (purified isoform) [3],21.9%
same,Band Intensity,[4],153
same,Inhibition (%),[4],46.6%
same,Relative Intensity (%),[4],53.3%
same,"relative binding capacity (100-%n, DMSO subtracted)",PKC-δ (purified isoform),17.3%
same,"relative binding capacity (100-%n, DMSO subtracted)",[5],1.18%
same,"relative binding capacity (100-%n, DMSO subtracted)",[6],6.02%
same,Band Intensity,[7],184
same,Inhibition (%),[7],42.9%
same,Relative Intensity (%),[7],57.1%
